In patent publication US20130309172:

B1: human matrix metalloproteinase (MMP-2) (protein)
chain: YNFFPRKPKWDKNQITYRIIGYTPDLDPETVDDAFARAFQVWSDVTPLRFSRIHDGEADIMINFGRWEHGDGYPFDGKDGLLAHAFAPGTGVGGDSHFDDDELWTLGEGQVVRVKYGNADGEYCKFPFLFNGKEYNSCTDTGRSDGFLWCSTTYNFEKDGKYGFCPHEALFTMGGNAEGQPCKFPFRFQGTSYDSCTTEGRTDGYRWCGTTEDYDRDKKYGFCPETAMSTVGGNSEGAPCVFPFTFLGNKYESCTSAGRSDGKMWCATTANYDDDRKWGFCPDQGYSLFLVAAHEFGHAMGLEHSQDPGALMAPIYTYTKNFRLSQDDIKGIQELYGASPDIDLGTGPTPTLGPVTPEICKQDIVFDGIAQIRGEIFFFKDRFIWRTVTPRDKPMGPLLVATFWPELPEKIDAVYEAPQEEKAVFFAGNEYWIYSASTLERGYPKPLTSLGLPPDVQRVDAAFNWSKNKKTYIFAGDKFWRYNEVKKKMDPGFPKLIADAWNAIPDNLDAVVDLQGGGHSYFFKGAYYLKLENQSLKSVKFGSIKSDWLGC

Key:
[1] = system: AuNP-PVGLIGC-PEG (cleavable)
[2] = biological target: AuNP-GIVGPLC-PEG (noncleavable negative control)
[3] = biological target: AuNP-PVGLIGC-PEG (cleavable); remark: listed apart in the source

Row | Molecule | cleavage of the peptide coating of the AuNP conjugate (UV-vis) [1] | cleavage of the peptide coating of the AuNP conjugate (DLS, zeta potential, UV-vis, TEM, FFF) [2] | cleavage of the peptide coating of the AuNP conjugate (DLS, zeta potential, UV-vis, TEM, FFF) [3]
1 | trypsin | Cleavable AuNPs treated with trypsin did not exhibit cleavage |  | 
2 | B1 |  | Non-cleavable control and blocker control AuNPs exhibited no cleavage | cleavable AuNPs were converted to denuded AuNPs following exposure to MMP-2
